target: T1, CD3 on primary human pan T cells (human, UniProt P07766 23-207); assay: flow cytometry, pan T-cells
T1 construct: on cells it stands in the TCR/CD3 complex; also called Pan T-cells (CD3-positive); endogenous CD3
Method: ELISA assays for binding to recombinant CD3 (TRCW5, SEQ ID NO: 39) were performed as above. Cell binding was performed using primary human T cell and Jurkat cells by flow cytometry. Briefly, E. coli expressed anti CD3 ScFv supernatants, either at room temperature, or 55° C., 60° C. or 65° C. heat treated samples.
Pan T-cells (CD3-positive) and Jurkat-CD3-negative cells were prepared by staining Jurkat-CD3-negative cells with CFSE while keeping pan T-cells unstained. Jurkat-CD3-negative cell suspensions were resuspended at 20 million cells per each 50 mL conical tube. Cells were harvested by centrifugation at 400×g for 5 minutes and resuspended in DPBS followed by washing 2× in DPBS. Cells were stained with 1:25,000 dilution for a final dye concentration of 0.02 uM CFSE (2 uL of staining solution to 50 mL of cell suspension). Cells were incubated for 10 minutes at room temperature and centrifuged for 5 minutes at 400×g. After removal of supernatant, 3 mL of HI-FBS were added to the cell pellet, mixed and centrifuged for 5 min at 400×g. Supernatant was removed and cells were resuspended in BD stain buffer at 2×10\hat{ }6 cells/mL and incubated on ice or 4 C protected from light. Human pan T cells were thawed at 37 C and transferred gently into a conical tube containing 15 mL of warm or RT culture media (RPMI+10% FBS). […] Cells were harvested by centrifugation at 400×g for 5 min and resuspended in culture media (RPMI+10% HI-FBS). Pan T-cells (without staining) were prepared at 2×10\hat{ }6 cells/mL in flow staining buffer. Equal volumes of CFSE stained Jurkat-CD3-negative cells and unstained T-cells (CD3-positive) cells were mixed and plated 50 uL/well into assay plates. 50 uL/well neat bacterial supernatant samples and control sample (CD3W36 ScFv) were added to each well and plates were incubated 1 hr at 4 C or. Cells were harvested by centrifugation at 400×g for 4 min and 150 uL staining buffer were added to all wells, followed by centrifugation at 400×g for 4 min to pellet cells. To each well, 150 uL staining buffer were added followed by centrifugation at 400×g for 4 minutes to pellet cells.

T1 sequence (P07766 23-207 limits assumed): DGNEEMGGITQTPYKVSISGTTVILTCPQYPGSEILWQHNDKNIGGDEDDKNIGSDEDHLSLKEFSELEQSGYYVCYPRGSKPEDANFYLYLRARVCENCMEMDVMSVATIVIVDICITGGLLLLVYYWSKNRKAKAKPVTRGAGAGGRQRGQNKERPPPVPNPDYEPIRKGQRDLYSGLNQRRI

Row | Binder | % Binding retained on T-cells, 55° C. [fraction] | % Binding retained on T-cells, 60° C. [fraction] | % Binding retained on T-cells, 65° C. [fraction] | % Binding retained on T-cells, RT [fraction]
1 | CD3B2035 (scFv) scFv: QVQLVQSGAEVKKPGSSVKVSCKASGYTFTRSTMHWVKQAPGQGLEWMGYINPSSAYTNYNQKFQGRVTLTADKSTSTAYMELSSLRSEDTAVYYCASPQVHYDYNGFPYWGQGTLVTVSSGGSEGKSSGSGSESKSTGGSEIVLTQSPATLSASPGERVTLSCSASSSVSYMNWYQQKPGQAPRRWIYDSSKLASGVPARFSGSGSGRDYTLTISSLEPEDFAVYYCQQWSRNPPTFGGGTKVEIK | 1.06 | 1.14 | 0.455 | 1
2 | CD3B2029 (scFv) scFv: QVQLVQSGAEVKKPGSSVKVSCKASGYTFTRSTMHWVKQAPGQGLEWIGYINPSSAYTNYNQKFQGRVTLTADKSTSTAYMELSSLRSEDTAVYYCASPQVHYDYNGFPYWGQGTLVTVSSGGSEGKSSGSGSESKSTGGSEIVLTQSPATLSASPGERVTLSCSASSSVSYMNWYQQKPGQSPRRWIYDSSKLASGVPARFSGSGSGRDYTLTISSLEPEDFAVYYCQQWSRNPPTFGGGTKVEIK | 1.06 | 1.08 | 0.329 | 1

target: T2, TRCW5 antigen (CD3δε-Fc-Avi) (biotinylated (site not stated)); assay: ELISA after heat
T2 construct: also called recombinant CD3
T2 sequence (chain, as listed by the source mutant limits assumed): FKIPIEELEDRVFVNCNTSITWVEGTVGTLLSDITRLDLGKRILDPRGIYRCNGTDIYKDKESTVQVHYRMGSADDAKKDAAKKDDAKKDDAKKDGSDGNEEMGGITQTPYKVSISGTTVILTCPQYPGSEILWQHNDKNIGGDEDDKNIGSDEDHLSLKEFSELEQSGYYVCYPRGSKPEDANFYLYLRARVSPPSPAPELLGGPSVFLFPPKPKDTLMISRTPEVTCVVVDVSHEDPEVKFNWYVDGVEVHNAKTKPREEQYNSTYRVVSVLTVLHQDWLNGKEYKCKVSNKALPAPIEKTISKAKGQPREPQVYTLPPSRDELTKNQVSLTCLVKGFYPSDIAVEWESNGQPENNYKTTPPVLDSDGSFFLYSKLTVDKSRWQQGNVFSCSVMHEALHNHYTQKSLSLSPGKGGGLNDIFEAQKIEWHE

Row | Binder | % Retained 55° C. [%] | % Retained 60° C. [%] | % Retained 65° C. [%]
3 | CD3B2035 (scFv) scFv: QVQLVQSGAEVKKPGSSVKVSCKASGYTFTRSTMHWVKQAPGQGLEWMGYINPSSAYTNYNQKFQGRVTLTADKSTSTAYMELSSLRSEDTAVYYCASPQVHYDYNGFPYWGQGTLVTVSSGGSEGKSSGSGSESKSTGGSEIVLTQSPATLSASPGERVTLSCSASSSVSYMNWYQQKPGQAPRRWIYDSSKLASGVPARFSGSGSGRDYTLTISSLEPEDFAVYYCQQWSRNPPTFGGGTKVEIK | 110 | 112 | 47
4 | CD3B2029 (scFv) scFv: QVQLVQSGAEVKKPGSSVKVSCKASGYTFTRSTMHWVKQAPGQGLEWIGYINPSSAYTNYNQKFQGRVTLTADKSTSTAYMELSSLRSEDTAVYYCASPQVHYDYNGFPYWGQGTLVTVSSGGSEGKSSGSGSESKSTGGSEIVLTQSPATLSASPGERVTLSCSASSSVSYMNWYQQKPGQSPRRWIYDSSKLASGVPARFSGSGSGRDYTLTISSLEPEDFAVYYCQQWSRNPPTFGGGTKVEIK | 100 | 97 | 29
5 | CD3B2060 (scFv) scFv: QVQLVQSGAEVKKPGSSVKVSCKASGYTFTRSTMHWVKQAPGQGLEWIGYINPSSAYTNYAQKFQGRVTLTADKSTSTAYMELSSLRSEDTAVYYCASPQVHYDYNGFPYWGQGTLVTVSSGGSEGKSSGSGSESKSTGGSEIVLTQSPATLSASPGERVTLSCSASSSVSYMNWYQQKPGQAPRRLIYDSSKLASGVPARFSGSGSGRDYTLTISSLEPEDFAVYYCQQWSRNPPTFGGGTKVEIK | 107 | 100 | 21
6 | CD3B2061 (scFv) scFv: QVQLVQSGAEVKKPGSSVKVSCKASGYTFTRSTMHWVKQAPGQGLEWIGYINPSSAYTNYAQKFQGRVTLTADKSTSTAYMELSSLRSEDTAVYYCASPQVHYDYNGFPYWGQGTLVTVSSGGSEGKSSGSGSESKSTGGSEIVLTQSPATLSASPGERVTLSCSASSSVSYMNWYQQKPGTAPRRWIYDSSKLASGVPARFSGSGSGRDYTLTISSLEPEDFAVYYCQQWSRNPPTFGGGTKVEIK | 116 | 107 | 9
7 | CD3B2062 (scFv) scFv: QVQLVQSGAEVKKPGSSVKVSCKASGYTFTRSTMHWVKQAPGQGLEWIGYINPSSAYTNYAQKFQGRVTLTADKSTSTAYMELSSLRSEDTAVYYCASPQVHYDYNGFPYWGQGTLVTVSSGGSEGKSSGSGSESKSTGGSEIVLTQSPATLSASPGERVTLSCSASSSVSYMNWYQQKPGTSPRRLIYDSSKLASGVPARFSGSGSGRDYTLTISSLEPEDFAVYYCQQWSRNPPTFGGGTKVEIK | 110 | 102 | 14
8 | CD3B2066 (scFv) scFv: QVQLVQSGAEVKKPGSSVKVSCKASGYTFTRSTMHWVRQAPGQGLEWMGYINPSSAYTNYNQKFQGRVTLTADKSTSTAYMELSSLRSEDTAVYYCASPQVHYDYNGFPYWGQGTLVTVSSGGSEGKSSGSGSESKSTGGSEIVLTQSPATLSASPGERVTLSCSASSSVSYMNWYQQKPGTSPRRWIYDSSKLASGVPARFSGSGSGRDYTLTISSLEPEDFAVYYCQQWSRNPPTFGGGTKVEIK | 109 | 109 | 11
9 | CD3B2067 (scFv) scFv: QVQLVQSGAEVKKPGSSVKVSCKASGYTFTRSTMHWVRQAPGQGLEWMGYINPSSAYTNYNQKFQGRVTLTADKSTSTAYMELSSLRSEDTAVYYCASPQVHYDYNGFPYWGQGTLVTVSSGGSEGKSSGSGSESKSTGGSEIVLTQSPATLSASPGERVTLSCSASSSVSYMNWYQQKPGQSPRRLIYDSSKLASGVPARFSGSGSGRDYTLTISSLEPEDFAVYYCQQWSRNPPTFGGGTKVEIK | 98 | 63 | 5
10 | CD3B2068 (scFv) scFv: QVQLVQSGAEVKKPGSSVKVSCKASGYTFTRSTMHWVRQAPGQGLEWMGYINPSSAYTNYNQKFQGRVTLTADKSTSTAYMELSSLRSEDTAVYYCASPQVHYDYNGFPYWGQGTLVTVSSGGSEGKSSGSGSESKSTGGSEIVLTQSPATLSASPGERVTLSCSASSSVSYMNWYQQKPGQAPRRLIYDSSKLASGVPARFSGSGSGRDYTLTISSLEPEDFAVYYCQQWSRNPPTFGGGTKVEIK | 103 | 88 | 10
11 | CD3B2070 (scFv) scFv: QVQLVQSGAEVKKPGSSVKVSCKASGYTFTRSTMHWVRQAPGQGLEWMGYINPSSAYTNYNQKFQGRVTLTADKSTSTAYMELSSLRSEDTAVYYCASPQVHYDYNGFPYWGQGTLVTVSSGGSEGKSSGSGSESKSTGGSEIVLTQSPATLSASPGERVTLSCSASSSVSYMNWYQQKPGTSPRRLIYDSSKLASGVPARFSGSGSGRDYTLTISSLEPEDFAVYYCQQWSRNPPTFGGGTKVEIK | 107 | 82 | 6
12 | CD3B2074 (scFv) scFv: QVQLVQSGAEVKKPGSSVKVSCKASGYTFTRSTMHWVRQAPGQGLEWIGYINPSSAYTNYAQKFQGRVTLTADKSTSTAYMELSSLRSEDTAVYYCASPQVHYDYNGFPYWGQGTLVTVSSGGSEGKSSGSGSESKSTGGSEIVLTQSPATLSASPGERVTLSCSASSSVSYMNWYQQKPGTSPRRWIYDSSKLASGVPARFSGSGSGRDYTLTISSLEPEDFAVYYCQQWSRNPPTFGGGTKVEIK | 104 | 101 | 6
13 | CD3B2075 (scFv) scFv: QVQLVQSGAEVKKPGSSVKVSCKASGYTFTRSTMHWVRQAPGQGLEWIGYINPSSAYTNYAQKFQGRVTLTADKSTSTAYMELSSLRSEDTAVYYCASPQVHYDYNGFPYWGQGTLVTVSSGGSEGKSSGSGSESKSTGGSEIVLTQSPATLSASPGERVTLSCSASSSVSYMNWYQQKPGQSPRRLIYDSSKLASGVPARFSGSGSGRDYTLTISSLEPEDFAVYYCQQWSRNPPTFGGGTKVEIK | 103 | 87 | 6
14 | CD3B2076 (scFv) scFv: QVQLVQSGAEVKKPGSSVKVSCKASGYTFTRSTMHWVRQAPGQGLEWIGYINPSSAYTNYAQKFQGRVTLTADKSTSTAYMELSSLRSEDTAVYYCASPQVHYDYNGFPYWGQGTLVTVSSGGSEGKSSGSGSESKSTGGSEIVLTQSPATLSASPGERVTLSCSASSSVSYMNWYQQKPGQAPRRLIYDSSKLASGVPARFSGSGSGRDYTLTISSLEPEDFAVYYCQQWSRNPPTFGGGTKVEIK | 100 | 82 | 7
15 | CD3B2083 (scFv) scFv: QVQLVQSGAEVKKPGSSVKVSCKASGYTFTRSTMHWVRQAPGQGLEWMGYINPSSAYTNYAQKFQGRVTLTADKSTSTAYMELSSLRSEDTAVYYCASPQVHYDYNGFPYWGQGTLVTVSSGGSEGKSSGSGSESKSTGGSEIVLTQSPATLSASPGERVTLSCSASSSVSYMNWYQQKPGQSPRRLIYDSSKLASGVPARFSGSGSGRDYTLTISSLEPEDFAVYYCQQWSRNPPTFGGGTKVEIK | 104 | 84 | 4
16 | CD3B2084 (scFv) scFv: QVQLVQSGAEVKKPGSSVKVSCKASGYTFTRSTMHWVRQAPGQGLEWMGYINPSSAYTNYAQKFQGRVTLTADKSTSTAYMELSSLRSEDTAVYYCASPQVHYDYNGFPYWGQGTLVTVSSGGSEGKSSGSGSESKSTGGSEIVLTQSPATLSASPGERVTLSCSASSSVSYMNWYQQKPGQAPRRLIYDSSKLASGVPARFSGSGSGRDYTLTISSLEPEDFAVYYCQQWSRNPPTFGGGTKVEIK | 108 | 91 | 9
